B1: CPEB3 Ribozyme (parent)
chain: GGGGGCCACAGCAGAAGCGUUCACGUCGCGGCCCCUGUCAGAUUCUGGUGAAUCUGCGAAUUCUGCUGU

Variants of: B1
Assay: self-cleavage, relative activity (ratio to wild type); higher = more cleavage; co-transcriptional

Variant	self-cleavage
A15C U43C	0.754
A15U U36G	0.181
A15U U36A	0.194
A15U G68C	0.929
A15C U55C	0.545
A15C U55A	0.435
A15U G19A	0.13
A15U G19C	0.132
A15U G19U	0.127
A15U G31U	0.205
A15U G31C	0.183
A15U G31A	0.248
A15G U64G	0.918
A15U C34G	0.372
A15U C34U	0.891
A15U C34A	0.513
A15G G30U	0.342
A15G G30A	0.917
A15C G48A	0.935
A15C G48C	0.918
A15C G48U	0.883
A15G A40G	0.996
A15G G28A	0.179
A15G G28U	0.141

Variant	self-cleavage
A15C U44G	0.739
A15C U44A	0.662
A15C U44C	0.659
A15C C35A	0.229
A15C C35G	0.285
A15G U38C	0.97
A15G U38G	0.157
A15C U64C	0.958
A15C U64A	0.952
A15C U64G	0.91
A15G A42G	0.928
A15G A42C	0.789
A15U C45G	0.823
A15U U49C	0.817
A15U U49A	0.931
A15U U49G	0.884
G14U U64A	0.458
G14U U64C	0.401
G14U U64G	0.481
A15U A59C	0.42
A15U A59G	0.856
A15U A59U	0.331
A15G U43C	1.01
G14U U61C	0.367

Variant	self-cleavage
G14U U61G	0.432
A15G C29A	0.636
A15G C29G	0.458
A15G U46C	0.974
A15G A60G	0.821
A15G A60C	0.43
A15C C54A	0.447
A15C C54U	0.865
A15C C54G	0.567
A15G G47A	0.971
A15G A52C	0.949
A15C C18G	0.0508
A15C C18U	0.296
A15C C18A	0.174
A15G U69C	1.05
A15G U69A	1.04
A15G U69G	1.05
A15U C33U	0.912
A15U C33A	0.493
A15C A42C	0.602
A15C A42G	0.678
A15C A42U	0.618
A15U C22A	0.225
A15U C22G	0.126

Variant	self-cleavage
A15U C22U	0.107
A15G G68C	1.05
A15G G68A	1.02
A15C U36A	0.288
A15C U36G	0.214
A15C U36C	0.487
A15U U44A	0.705
A15G G37A	0.27
A15G G37U	0.286
A15U A40C	0.287
A15U A40G	0.697
G14U U67C	0.55
G14U U67G	0.77
A15C G56A	0.651
A15C G56U	0.626
A15U G37U	0.176
A15U G37A	0.219
A15U G37C	0.179
A15G A51C	0.993
A15C G68U	0.969
A15C G68C	0.917
A15C C63G	0.921
A15G G17A	0.312
A15G G17U	0.424

Variant	self-cleavage
G14U U55G	0.268
G14U U55C	0.345
A15C C24A	0.273
A15C C24U	0.27
A15C A16U	0.49
A15C A16C	0.111
A15C A16G	0.142
A15U U53A	0.468
A15U U53C	0.413
A15U U20G	0.132
A15U U20A	0.106
A15U U20C	0.211
A15G C34G	0.665
A15G C34A	0.764
A15G C34U	1.01
A15C G30A	0.392
A15C G30U	0.0766
A15C C34A	0.394
A15G G41U	0.891
A15C G65A	0.43
A15U C29G	0.169
A15U C29A	0.245
A15U A60G	0.416
A15U A60C	0.298

Variant	self-cleavage
A15C U69C	0.978
A15U C63U	0.794
A15U C63A	0.832
A15G C45G	0.965
A15G C45A	1
A15G C45U	1.02
A15C G47U	0.916
A15G C66A	0.828
A15G C66U	0.964
A15G C54A	0.914
A15G C54G	0.886
A15G C54U	1.04
A15U G50C	0.795
A15U G50U	0.858
A15C G50C	0.808
A15C G50A	0.933
A15C A52G	0.98
A15U U46C	0.848
A15C U61C	0.356
A15C U61A	0.468
A15C U61G	0.723
A15C A59C	0.288
A15U U26A	0.34
A15U U26G	0.424

Variant	self-cleavage
A15U U26C	0.634
A15U C57G	0.259
A15U C57A	0.298
A15G C39A	0.833
A15C A60C	0.308
A15C A60U	0.377
A15C A60G	0.292
A15C U26A	0.48
A15C U26C	0.73
A15U G41U	0.378
A15U G41C	0.257
A15C U21C	0.51
A15C U21A	0.791
A15U C54U	0.845
A15U C54A	0.468
A15U C54G	0.412
A15C C29G	0.163
A15C C29U	0.122
A15U A51G	0.916
A15U A51C	0.79
A15U G30C	0.287
A15U G30U	0.184
A15U G30A	0.361

Reference: the RNAGym collection of RNA variant scans (doi:10.7554/elife.80360)
